According to article PMC3098719 (Molecular cell, 2008):
Positions count from the first letter of the chain named. In names and notes the source's numbering stands.

What was measured:
[1] = target: T1, Kae1 (residues 1-328 of Methanococcus jannaschii MJ1130), untagged (Methanococcus jannaschii, UniProt Q58530 1-328); test: pull-down
T1 sequence (looked up): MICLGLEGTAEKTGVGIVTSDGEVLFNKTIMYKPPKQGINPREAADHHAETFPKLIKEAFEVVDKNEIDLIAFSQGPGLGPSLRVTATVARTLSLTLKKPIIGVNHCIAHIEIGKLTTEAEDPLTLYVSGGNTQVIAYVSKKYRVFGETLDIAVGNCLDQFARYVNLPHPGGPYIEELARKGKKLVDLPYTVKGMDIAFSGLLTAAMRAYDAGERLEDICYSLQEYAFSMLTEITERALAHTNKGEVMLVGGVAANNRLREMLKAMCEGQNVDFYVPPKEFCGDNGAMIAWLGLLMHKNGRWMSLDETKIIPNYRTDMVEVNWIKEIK

SEC = target: the molecule itself; test: SEC
[2] = target: T2, GST-Kae1 E236K (M. jannaschii) (Methanococcus jannaschii, UniProt Q58530 1-328, E236K); test: pull-down
T2 sequence (looked up): T1 sequence (looked up) with E236K

[3] = target: T3, GST-Kae1 (residues 1-328 of Methanococcus jannaschii MJ1130) (Methanococcus jannaschii, UniProt Q58530 1-328); test: pull-down
T3 sequence (looked up): T1 sequence (looked up)

[4] = target: T4, GST-Kae1 E233R (M. jannaschii) (Methanococcus jannaschii, UniProt Q58530 1-328, E233R); test: pull-down
T4 sequence (looked up): T1 sequence (looked up) with E233R

[5] = target: T5, Bud32 K365E (M. jannaschii) (Methanococcus jannaschii, UniProt Q58530 328-535, K365E); test: pull-down
T5 sequence (looked up): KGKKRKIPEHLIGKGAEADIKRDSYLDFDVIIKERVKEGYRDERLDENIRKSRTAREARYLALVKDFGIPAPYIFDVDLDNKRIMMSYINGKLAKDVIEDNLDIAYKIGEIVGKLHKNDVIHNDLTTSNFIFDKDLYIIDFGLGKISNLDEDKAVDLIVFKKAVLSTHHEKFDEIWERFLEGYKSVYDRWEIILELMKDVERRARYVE

[6] = target: T6, Bud32 K489E (M. jannaschii) (Methanococcus jannaschii, UniProt Q58530 328-535, K489E); test: pull-down
T6 sequence (looked up): T5 sequence (looked up) with E38K, K162E

[7] = target: T7, Bud32 R380E (M. jannaschii) (Methanococcus jannaschii, UniProt Q58530 328-535, R380E); test: pull-down
T7 sequence (looked up): T5 sequence (looked up) with E38K, R53E

[8] = target: T8, Bud32 V486Y (M. jannaschii) (Methanococcus jannaschii, UniProt Q58530 328-535, V486Y); test: pull-down
T8 sequence (looked up): T5 sequence (looked up) with E38K, V159Y

[9] = target: MJ1130 (Kae1-Bud32 fusion of Methanococcus jannaschii) as used for the complex with Cgi121 (Methanococcus jannaschii) (UniProt Q58530); test: crystal structure
[10] = target: T9, Bud32 (residues 328-535 of Methanococcus jannaschii MJ1130), untagged (Methanococcus jannaschii, UniProt Q58530 328-535); test: pull-down
T9 sequence (looked up): T5 sequence (looked up) with E38K

B1: GST-Pcc1 (Pyrococcus furiosus PF2011) (natural protein, UniProt Q8TZI1 1-82, looked up)
chain: MKAKRVQAKIEIEFPSEDVAKVVYEAVLYEHLSVPYRRSEIDFKLEGKKIILDIKATDSSALRGTVNSYLRWIKAAIDVIEV
binding result [1]: binds

B2: Pcc1 E30R (P. furiosus) (natural protein, Pyrococcus furiosus, UniProt Q8TZI1 1-82, looked up)
chain: B1 chain with E30R
stoichiometry N (SEC): 2

B3: Pcc1 V79R (P. furiosus) (natural protein, Pyrococcus furiosus, UniProt Q8TZI1 1-82, looked up)
chain: B1 chain with V79R
stoichiometry N (SEC): 2

B4: Pcc1 (Pyrococcus furiosus PF2011), untagged (natural protein, UniProt Q8TZI1 1-82, looked up)
chain: B1 chain
binding result [2]: binds | binding result [3]: binds | binding result [4]: binds

B5: Pcc1 A75Y (P. furiosus) (natural protein, Pyrococcus furiosus, UniProt Q8TZI1 1-82, looked up)
chain: B1 chain with A75Y
stoichiometry N (SEC): 2

B6: Pcc1 A75Y/V79R (P. furiosus) (natural protein, Pyrococcus furiosus, UniProt Q8TZI1 1-82, looked up)
chain: B1 chain with A75Y, V79R
stoichiometry N (SEC): 2

B7: GST-Cgi121 (Methanococcus jannaschii MJ0187) (natural protein, UniProt Q57646 1-145, looked up)
chain: MIIRGIRGARINNEIFNLGLKFQILNADVVATKKHVLHAINQAKTKKPIAKSFWMEILVRASGQRQIHEAIKIIGAKDGNVCLICEDEETFRKIYELIGGEIDDSVLEINEDKERLIREIFKIRGFGNVVERVLEKIALIELKKE
binding result [5]: binds | binding result [6]: binds | binding result [7]: binds | binding result [8]: binds | stoichiometry N (Cgi121 per MJ1130) [9]: 1

B8: GST-Cgi121 A138R (M. jannaschii) (natural protein, Methanococcus jannaschii, UniProt Q57646 1-145, looked up)
chain: B7 chain with A138R
binding result [10]: binds

B9: GST-Cgi121 L134E (M. jannaschii) (natural protein, Methanococcus jannaschii, UniProt Q57646 1-145, looked up)
chain: B7 chain with L134E
binding result [10]: binds

B10: GST-Cgi121 L139R (M. jannaschii) (natural protein, Methanococcus jannaschii, UniProt Q57646 1-145, looked up)
chain: B7 chain with L139R
binding result [10]: binds
